Assay [1] concerns the target T1, Homo sapiens QSOX1 (recombinant HsQSOX1) (Homo sapiens, UniProt O00391 33-546, limits assumed).
T1 sequence: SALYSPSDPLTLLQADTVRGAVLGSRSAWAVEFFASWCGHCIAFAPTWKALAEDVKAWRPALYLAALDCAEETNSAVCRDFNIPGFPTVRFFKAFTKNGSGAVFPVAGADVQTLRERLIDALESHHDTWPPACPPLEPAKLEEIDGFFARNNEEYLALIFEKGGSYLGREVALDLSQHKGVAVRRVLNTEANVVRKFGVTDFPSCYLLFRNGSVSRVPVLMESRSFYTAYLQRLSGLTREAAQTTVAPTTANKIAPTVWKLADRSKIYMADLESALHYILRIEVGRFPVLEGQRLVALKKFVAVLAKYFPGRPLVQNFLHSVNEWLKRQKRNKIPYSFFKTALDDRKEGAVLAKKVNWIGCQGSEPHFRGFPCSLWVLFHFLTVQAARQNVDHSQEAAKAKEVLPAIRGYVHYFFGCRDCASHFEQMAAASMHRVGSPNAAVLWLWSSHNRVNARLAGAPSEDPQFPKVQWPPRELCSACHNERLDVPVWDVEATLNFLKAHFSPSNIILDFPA
Kind of assay: cell-based or functional assay.

Assay [2] deals with MmQSOX1 TLPG(138-141)VFPV (Mus musculus). Description: cell-based or functional assay.
Assay [3] deals with MmQSOX1 A116P and TLPG(138-141)VFPV (Mus musculus). Kind of assay: cell-based or functional assay.
For assay [4], the target named is MmQSOX1 A116P (Mus musculus). Kind of assay: cell-based or functional assay.
Assay [5] has as its target T2, biotinylated MmQSOX1Trx (Mus musculus, UniProt Q8BND5 36-275, Biotin on the lysine of the C-terminal AviTag (tag not in the letters); in early screening rounds pre-loaded with streptavidin-APC).
T2 construct: Used for yeast-surface display; in the first screening rounds pre-loaded with streptavidin-APC in a 1:4 molar ratio; also called MmQSOX1Trx with AviTag; not shown: purification tag
T2 sequence: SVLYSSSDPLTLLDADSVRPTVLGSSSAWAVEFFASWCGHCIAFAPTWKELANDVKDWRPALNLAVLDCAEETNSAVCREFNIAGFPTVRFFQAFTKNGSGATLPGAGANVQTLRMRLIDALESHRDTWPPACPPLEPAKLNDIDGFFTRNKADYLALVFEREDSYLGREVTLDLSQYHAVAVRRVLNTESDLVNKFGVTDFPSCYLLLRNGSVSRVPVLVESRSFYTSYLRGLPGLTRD
Description: yeast-surface display flow cytometry. For orientation: A flow cytometer gives signals particle by particle.

Assay [6] deals with T3, MmQSOX1Erv (Mus musculus, UniProt Q8BND5 289-550, FAD cofactor bound).
T3 construct: also called MmQSOX1 Erv module
T3 sequence: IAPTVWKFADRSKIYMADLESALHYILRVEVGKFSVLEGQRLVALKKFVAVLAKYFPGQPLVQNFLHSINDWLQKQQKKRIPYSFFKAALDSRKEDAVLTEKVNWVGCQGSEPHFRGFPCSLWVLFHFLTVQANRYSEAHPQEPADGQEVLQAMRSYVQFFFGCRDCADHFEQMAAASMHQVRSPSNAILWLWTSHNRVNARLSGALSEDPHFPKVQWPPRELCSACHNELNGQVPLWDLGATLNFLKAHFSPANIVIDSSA
Description: analytical size-exclusion chromatography. Here is the method: (§1) MsQSOX1-antibody complexes were injected after a 30 min co-incubation at 4° C. Elution of proteins was monitored by absorbance at 280 nm.

Assay [7] addresses T4, MmQSOX1Trx (Mus musculus, UniProt Q8BND5 36-275).
T4 construct: Residues 36-275 of Mus musculus QSOX1, made in E. coli, purified on Ni-NTA; also called MmQSOX1Trv; Trx module of MmQSOX1
T4 sequence: T2 sequence
Kind of assay: analytical size-exclusion chromatography. Here is the method:
as §1
On the technique in general: SEC sorts molecules by how far they enter the pores of the column.

Assay [8] deals with T4, MmQSOX1Trx. Description: complex purified by size-exclusion chromatography. Here is the method:
A stop codon was inserted after the CH1 segment of the heavy chain, to obtain a coding sequence for a Fab fragment. […] Prior to crystallization the complexes were concentrated to 10 mg/ml.

Numbering of substitutions follows the chain as printed. Names may count otherwise.

Data on four molecules can be found in patent US20180273639A1 (YEDA RESEARCH AND DEVELOPMENT, published 2018).

B1: MAb492.1 (antibody, V domains shown)
VH: QVQLKQSGPGLVAPSQSLSITCTVSGFSLTGYGVNWVRQSPGKGLEWLGMIWGDGRTDYKSALKSRLSITKDNSKSQVFLKMNSLQTDDTARYFCASDYYGSGSFAYWGQGTLVTVSA
VL: DVVMTQTHKFMSTSVGDRVSITCKASQDVSTAVAWYQQKSGQSPKLLIHSASYRYTGVPDRFTGSGSGTDFTFTISSVQAEDLAVYYCQQHYSIPLTFGAGTKLELK
Take B1: the “percent inhibition of enzyme activity, oxygen consumption assay” value in assay [1] was 100%; in assay [2], about 50%; in assay [3] it was 100%; in assay [4], about 60%.

B2: scFv492.1 S93A Y99S Y100K G101D S102P D58E T31G H49S S50M Y52Q (scFv, V domains shown)
VH: B1 VH with D58E, Y99S, Y100K, G101D, S102P
VL: B1 VL with T31G, H49S, S50M, Y53Q, S93A
notes: also called template d; not shown: scFv linker and domain order; yeast display fusion partner and cMyc tag (pETCON)
In the case of B2, the binding result in assay [5] was “binds”.

B3: MAb316.1 (antibody, V domains shown)
VH: QVQLQQSGPELVKPGASVKISCKASGYSFTSYYIHWVKQRPGQGLEWIGWIYPGSYNTEYSEKFKGKATLTADTSSSTAYMQLSSLTSEDSAVYYCARSEDWFAYWGQGTLVTVS
VL: QIVLTQSPAIMSASPGEKVTISCSASSSVSYMYWYHQKPGSSPKPWIYRTSNLASGVPARFSGSGSGTSYSLTISSMEAEDAATYYCQQYHSYPLTFGAGTKLELK
notes: Hybridoma antibody from QSOX1 knock-out mice immunised with MmQSOX1
B3: the binding result in assay [6] is reported as “no binding”; in assay [7], “binds”.

B4: Fab316.1 (Fab, V domains shown)
VH: B3 VH
VL: B3 VL
notes: also called Fab fragment of MAb316.1
With B4, the binding result in assay [8] is “binds”.
